Results on 53 sequences are retold here after the supplement of paper PMC9233669.

Variants at the floor of the assay were thinned out.

The series concerns biotinyl-Phe-oxazolone. Kind of series: self-aminoacylation, catalytic enhancement (BFO) (fold over background); higher = more active; k-Seq, kA / k0A0; sequences stand for … in GGGAAUGGAUCCACAUCUACGAAUUC…UUCACUGCAGACUUGACGAAGCUG
In short, it runs like this: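 Mutagenized RNA pools with a 21-nt variable region (0.43 μM) were reacted with each biotinyl-aminoacyl-oxazolone at 2–1250 μM for 90 minutes at room temperature, in 50 μL HEPES/NaCl/KCl/MgCl2/CaCl2 buffer containing 5% acetonitrile at pH 6.9–7.0. RNA captured on streptavidin was quantified by triplicate qPCR and by Illumina sequencing. The fraction reacted for each sequence was fit to a pseudo-first-order model with bootstrapping, and catalytic enhancement is the median kA divided by the uncatalyzed rate, taken as the low-activity peak of a bimodal Gaussian fit.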
Turning to “UAGUUGGCUAAUAGUCGCAAG [Fam3.1 aminoacylation ribozyme variant]”, the self-aminoacylation came to 2.38.

As to “AAGUUCGGUAAUAGUCGCAAG [Fam3.1 aminoacylation ribozyme variant]”, the self-aminoacylation turned out to be 3.24.

For “AAGUUUUCCAAUAGUCGCAAG [Fam3.1 aminoacylation ribozyme variant]”, the self-aminoacylation was 2.43.

Consider “AAGUUUUCUCAUAGUCGCAAG [Fam3.1 aminoacylation ribozyme variant]”, for which the self-aminoacylation was 3.59.

Consider “AGGUUUGCUUAUAGUCGCAAG [Fam3.1 aminoacylation ribozyme variant]”, for which the self-aminoacylation was 2.89.

As to “CCUCACUUCAAGCAAUCGGAC [Fam1B.1 aminoacylation ribozyme variant]”, the self-aminoacylation came out at 2.16.

For the sequence “CCACUUCAAACAAUCGAUCUG [Fam1A.1 aminoacylation ribozyme variant]”, the self-aminoacylation stood at 4.61.

In the case of “AAGUUUGCUAACAGCCGCAAG [Fam3.1 aminoacylation ribozyme variant]”, the self-aminoacylation came to 3.09.

Take “CUAAAUCAAACAAUCGGUCUG [Fam1A.1 aminoacylation ribozyme variant]”: the self-aminoacylation was 3.19.

Take “AUUCACCUAGGUCAUCGUGCG [Fam2.2 aminoacylation ribozyme variant]”: the self-aminoacylation was found to be 5.13.

Take “CUACUUGAAACACUCGGUCUG [Fam1A.1 aminoacylation ribozyme variant]”: the self-aminoacylation came to 3.53.

Consider “AAGCUUGCUAAUAGUUGCAAG [Fam3.1 aminoacylation ribozyme variant]”, for which the self-aminoacylation came to 2.19.

On to “AAGUUCGCUAAUAGUCUCAAG [Fam3.1 aminoacylation ribozyme variant]”, for which the self-aminoacylation was determined as 2.72.

Regarding “AAGUUUGCUUAUAGUCGCAAA [Fam3.1 aminoacylation ribozyme variant]”, the self-aminoacylation was 2.38.

With “AUUCAGCUAGGUCAUCGGAUG [Fam2.2 aminoacylation ribozyme variant]”, the self-aminoacylation was 2.91.

“CUACGUCAAACGAUCGGUCUG [Fam1A.1 aminoacylation ribozyme variant]”: the self-aminoacylation came to 3.76.

“CUUCAUCAAACAAUCGGUCUG [Fam1A.1 aminoacylation ribozyme variant]”: the self-aminoacylation came out at 2.05.

In the case of “CUACUUCAGACAUUCGGUCUG [Fam1A.1 aminoacylation ribozyme variant]”, the self-aminoacylation came out at 6.22.

On to “AUUCACCUACUUCAUCGGGUG [Fam2.2 aminoacylation ribozyme variant]”, for which the self-aminoacylation was found to be 3.44.

Take “AUUCACCUAGGUCCUCGUGUG [Fam2.2 aminoacylation ribozyme variant]”: the self-aminoacylation is 5.79.

In the case of “AAGUUUUCUAAUAGUCGCAAU [Fam3.1 aminoacylation ribozyme variant]”, the self-aminoacylation turned out to be 2.37.

On to “AUUCACCUAGGUGAUCGGGUC [Fam2.2 aminoacylation ribozyme variant]”, for which the self-aminoacylation came out at 2.84.

Take “AUUAACCUAGGUCAUCGUGUG [Fam2.2 aminoacylation ribozyme variant]”: the self-aminoacylation amounted to 3.17.

Take “AUUCAACUAGGUCAUCGUGUG [Fam2.2 aminoacylation ribozyme variant]”: the self-aminoacylation worked out at 5.52.

Turning to “ACGUUUGCUAAUAGUCGGAAG [Fam3.1 aminoacylation ribozyme variant]”, the self-aminoacylation worked out at 3.98.

With “CUACGUCAAACAAUUGGUCUG [Fam1A.1 aminoacylation ribozyme variant]”, the self-aminoacylation amounted to 2.06.

“AGUACCCUGGUCAUCGAGUUA [Fam2.1 aminoacylation ribozyme variant]”: the self-aminoacylation came out at 2.58.

Consider “ACACACUUCAAGCGAUCGGUC [Fam1B.1 aminoacylation ribozyme variant]”, for which the self-aminoacylation was 2.18.

With “CAGUUUCCUAAUAGUCGCAAG [Fam3.1 aminoacylation ribozyme variant]”, the self-aminoacylation is 2.17.

In the case of “AAGGUUGCCAAUAGUCGCAAG [Fam3.1 aminoacylation ribozyme variant]”, the self-aminoacylation was found to be 2.4.

“AGGUUUUCUAAUAGUCGCAAG [Fam3.1 aminoacylation ribozyme variant]”: the self-aminoacylation was 2.83.

As to “CCACACUUCAAACAACCGGUC [Fam1B.1 aminoacylation ribozyme variant]”, the self-aminoacylation came out at 2.26.

For the sequence “AUUACCCUGGUCAUCGUGUGG [Fam2.1 aminoacylation ribozyme variant]”, the self-aminoacylation stood at 2.9.

Consider “AUUAGCCUCGUCAUCGAGUGA [Fam2.1 aminoacylation ribozyme variant]”, for which the self-aminoacylation was found to be 2.19.

Take “AUUACCCUGGUCGUCGAGUGG [Fam2.1 aminoacylation ribozyme variant]”: the self-aminoacylation was found to be 2.7.

In the case of “AAGUUUGCUAAUGGUCGCAAC [Fam3.1 aminoacylation ribozyme variant]”, the self-aminoacylation was 6.25.

On to “AUUCAACUAGGUCGUCGGGUG [Fam2.2 aminoacylation ribozyme variant]”, for which the self-aminoacylation is 6.9.

As to “UUUACCCUGGUCGUCGAGUGA [Fam2.1 aminoacylation ribozyme variant]”, the self-aminoacylation was 5.7.

On to “CUACUUCAAACAAUCUGUCUG [Fam1A.1 aminoacylation ribozyme variant]”, for which the self-aminoacylation was 3.23.

As for “CCCCACUUCAAGCAAUAGGUC [Fam1B.1 aminoacylation ribozyme variant]”, the self-aminoacylation was 2.02.

“AAGUUUACUAAUAGUCGAAAG [Fam3.1 aminoacylation ribozyme variant]”: the self-aminoacylation turned out to be 2.51.

On to “AUUCACCUACGUCAUCGGCUG [Fam2.2 aminoacylation ribozyme variant]”, for which the self-aminoacylation came out at 2.24.

Consider “UAGUUUGCUCAUAGUCGCAAG [Fam3.1 aminoacylation ribozyme variant]”, for which the self-aminoacylation was determined as 2.67.

Consider “AUUAGCCUGGUCAUCGAGUGC [Fam2.1 aminoacylation ribozyme variant]”, for which the self-aminoacylation was determined as 2.04.

Take “AAUACCCUGGUCAUCGAGUUA [Fam2.1 aminoacylation ribozyme variant]”: the self-aminoacylation was determined as 2.17.

With “CUAAUUCAAAUAAUCGGUCUG [Fam1A.1 aminoacylation ribozyme variant]”, the self-aminoacylation was 2.58.

In the case of “AUUACCCUGGUCAGCGAUUGA [Fam2.1 aminoacylation ribozyme variant]”, the self-aminoacylation was 2.52.

Consider “CUACAUCAAACAAGCGGUCUG [Fam1A.1 aminoacylation ribozyme variant]”, for which the self-aminoacylation turned out to be 4.11.

As to “CCCCACUACAAGCAAUCGGUC [Fam1B.1 aminoacylation ribozyme variant]”, the self-aminoacylation stood at 2.24.

As to “AUUCACCUAGUUCAUCGGGAG [Fam2.2 aminoacylation ribozyme variant]”, the self-aminoacylation amounted to 2.23.

Regarding “AAGUUUCCUAAUAGUUGCAAG [Fam3.1 aminoacylation ribozyme variant]”, the self-aminoacylation came out at 2.63.

Take “AUUCACCUAGUUCAUCGGGUU [Fam2.2 aminoacylation ribozyme variant]”: the self-aminoacylation worked out at 5.74.

For “AUUCACCUAGCUCGUCGGGUG [Fam2.2 aminoacylation ribozyme variant]”, the self-aminoacylation came out at 4.07.
